We go through 1 molecule from patent US20190062438A1 (CSL, published 2019).

What all share (assay): SPR, Fab over captured mutant
A general note: In SPR one partner is held on a chip, and binding of the other changes the refractive index at the surface.

Assay [1] deals with T1, shCD131 T106A (human, UniProt P32927 17-438).
T1 construct: C-terminal 6xHis
T1 sequence: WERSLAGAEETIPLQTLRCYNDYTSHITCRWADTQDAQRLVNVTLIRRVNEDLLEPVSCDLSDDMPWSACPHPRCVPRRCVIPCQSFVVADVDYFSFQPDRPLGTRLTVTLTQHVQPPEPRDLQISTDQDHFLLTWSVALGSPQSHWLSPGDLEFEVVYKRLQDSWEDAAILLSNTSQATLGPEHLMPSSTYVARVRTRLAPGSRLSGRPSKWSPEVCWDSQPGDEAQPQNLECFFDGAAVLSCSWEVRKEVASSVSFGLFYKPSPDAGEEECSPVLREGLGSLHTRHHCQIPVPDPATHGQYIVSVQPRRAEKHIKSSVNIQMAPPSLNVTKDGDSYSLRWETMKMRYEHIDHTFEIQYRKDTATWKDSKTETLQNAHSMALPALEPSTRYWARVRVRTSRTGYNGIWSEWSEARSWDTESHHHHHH
The procedure:
For some analysis purified Fab was injected over each flow cell for 3 minutes and dissociation was monitored for a further 10 minutes. Regeneration of the surface was performed after each cycle with a 40 second injection of 25 mM glycine, pH 2.0. The analysis was performed with Fabs at several concentrations between 100 and 0.31 nM, with each concentration analyzed twice and in random order. The analysis was performed at a flow rate of 30 μl/min in HBS-EP buffer (10 mM Hepes, 150 mM NaCl, 3 mM EDTA, 0.005% Tween 20, pH 7.4) at 37° C. Responses from spots 2 and 4 of each flow cell, (in which shβc was not captured, but otherwise treated identically), were subtracted from those of spots 1 and 5 respectively to produce reference subtracted data. Reference subtracted responses from a blank injection comprising buffer alone were subtracted from the resultant sensorgrams to produce double referenced data suitable for kinetic analysis. […]
Mapping of the shCD131 epitope was performed by measurement of the affinity of Fabs for various alanine point mutants of shCD131 essentially as described above, with the following exceptions. […] For kinetic analysis, purified recombinant Fabs were injected for 2 minutes, and dissociation was monitored for a further 2 minutes. […] Kinetic parameters were determined as described above.

Assay [2] has as its target T2, shCD131 F103A (human, UniProt P32927 17-438).
T2 construct: C-terminal 6xHis
T2 sequence: T1 sequence with F87A, A90T
As to the method:
(§1) As shβc is a dimer, kinetics assays were performed with shβc captured on the sensor surface, and purified Fab injected as the analyte. Avidity effects were avoided by the use of Fab rather than whole IgG.
(§2) shCD131 was captured on spots 1 and 5 of each flow cell for 2 minutes at a concentration of 0.4 μg/ml. […] For some analysis purified Fab was injected over each flow cell for 3 minutes and dissociation was monitored for a further 10 minutes. Regeneration of the surface was performed after each cycle with a 40 second injection of 25 mM glycine, pH 2.0. The analysis was performed with Fabs at several concentrations between 100 and 0.31 nM, with each concentration analyzed twice and in random order. The analysis was performed at a flow rate of 30 μl/min in HBS-EP buffer (10 mM Hepes, 150 mM NaCl, 3 mM EDTA, 0.005% Tween 20, pH 7.4) at 37° C. Responses from spots 2 and 4 of each flow cell, (in which shβc was not captured, but otherwise treated identically), were subtracted from those of spots 1 and 5 respectively to produce reference subtracted data. Reference subtracted responses from a blank injection comprising buffer alone were subtracted from the resultant sensorgrams to produce double referenced data suitable for kinetic analysis. Double-referenced sensorgrams were fitted using non-linear regression to a model describing 1:1 kinetics, including a term for mass transport limitation. The Rₘₐₓ value was fitted locally to account for slight deviations in the level of sCD131 captured, with association rate (kₐ), dissociation rate (kd) and equilibrium dissociation constant (KD) fitted globally.
(§3) Mapping of the shCD131 epitope was performed by measurement of the affinity of Fabs for various alanine point mutants of shCD131 essentially as described above, with the following exceptions. Each shCD131 mutant was captured for 120 seconds at concentrations between 1 and 5 μg/ml. For kinetic analysis, purified recombinant Fabs were injected for 2 minutes, and dissociation was monitored for a further 2 minutes. […] Fab concentrations ranged from 16 μM to 3.9 nM in two-fold dilutions.

The target in assay [3] is T3, shCD131 I338A (human, UniProt P32927 17-438).
T3 construct: C-terminal 6xHis; also called 1338A
T3 sequence: T1 sequence with A90T, I322A
As to the method:
as §1, §2, §3

Residue numbers refer to the chain shown, from its start.

B1: 9A2 Fab (Fab, V domains shown)
VH: EVQLLESGGGLVQPGGSLRLSCAASGFTFSHYHMLWVRQAPGKGLEWVSSIRSSGGFTYYADSVKGRFTISRDNSKNTLYLQMNSLRAEDTAVYYCARFYDSFFDIWGQGTMVTVSS
VL: DIQMTQSPSSVSASVGDRVTITCRASQGISSWLAWYQQKPGKAPKLLIYAASSLQSGVPSRFSGSGSGTDFTLTISSLQPEDFATYYCQQANSFPITFGQGTRLEIKR
notes: also called recombinant Fab of 9A2
In the case of B1, the “fold increase in affinity relative to WT shCD131” value in assay [1] was about 10 fold. For the same molecule, the binding result in assay [2] and in assay [3] was “no binding (tested: Fab up to 16 µM)” in each case.
